{"source": "paper PMC2749211", "target": "SMU.440, hypothetical protein from Streptococcus mutans (Streptococcus mutans)", "assay": "SEC; gel filtration on HiLoad Superdex 75, 20 mM Tris-HCl pH 7.5, 150 mM NaCl", "data": [{"substance": "SMU.440, hypothetical protein from Streptococcus mutans (natural protein)", "values": [{"measurement": "stoichiometry N", "value": 2}]}]}
